Columns and labels:
[1] = biological target: T1, NC3 peptide … / HLA-A*02:01 complex (human); test: immunopurification from BV173 cell lysate and LC-MS/MS, relative quantitation
T1 construct: whole, on cells; On pulsed T2 cells; also pulled down from BV173 lysate (HLA-A*02)
Experimental: (§1) 200M BV173 cells were lysed with 1% CHAPS, incubated for 1h in the cold room and spun down at 20,000 g for 50 min.

… / HLA-A*02:01 complex [2] = biological target: T2, … / HLA-A*02:01 complex (human); test: as above
T2 construct: whole, on cells; On pulsed T2 cells; also pulled down from BV173 lysate (HLA-A*02)
Experimental: as §1

[3] = biological target: T3, NC1 peptide … / HLA-A*02:01 complex (human); test: as above
T3 construct: whole, on cells; On pulsed T2 cells; also pulled down from BV173 lysate (HLA-A*02) and presented on JMN cells
Experimental: as §1

… / HLA-A*02:01 complex [4] = biological target: T4, … / HLA-A*02:01 complex (human); test: as above; remark: listed apart in the source
T4 construct: whole, on cells; On pulsed T2 cells; also pulled down from BV173 lysate (HLA-A*02)
Experimental: as §1

[5] = biological target: T5, NDC80 derived peptide … / HLA-A*02:01 complex (human); test: flow cytometry, antibody on pulsed T2 cells
T5 construct: whole, on cells; On pulsed T2 cells

[6] = biological target: T6, NDC80 derived peptide … / HLA-A*02:01 complex (human); test: flow cytometry, antibody on pulsed T2 cells; remark: listed apart in the source
T6 construct: whole, on cells; On pulsed T2 cells

B1: TCR mimic antibody clone 1 (mIgG1 clone 1 antibody) (antibody, V domains shown)
VH: EVQLVQSGAEVKKPGESLKISCEASGYSFSSNWIAWVRQRPGKGLEWMGIIYPGDSDTRYSPSFQGQVTMSADMSISTAYLQWSSLKASDTAMYYCARFAGPGMWSYGFDYWGQGTLVTVSS
VL: DIQLTQSPSSLSASVGDRVTITCRASQGIRNDLGWYQQKPGKAPKLMIYAASSLQSGVPSRFSGSGSGTDFTLTISSLQPEDFATYYCLQDYDYPLTFGGGTKLEIKR
notes: also called NDC80 clone 1 mAb; mouse version of NDC80 clone 1 mAb
Q: What does the source list for B1?
A: fold lower MS signal intensity than … [1]: ≥ 3 fold; fold lower MS signal intensity than … (… / HLA-A*02:01 complex [2]): ≥ 3 fold; fold lower MS signal intensity than … [3]: 3 fold; fold lower MS signal intensity than … (… / HLA-A*02:01 complex [4]): ≥ 3 fold; binding result [5]: no binding; binding result [6]: no binding

Reference: patent publication US20230374140A1 (Memorial Sloan Kettering, published 2023)
